The source of these data is US20090156489A1 (Genentech, published 2009).

Sequences and labels used below:
B1: recombinant human cMet-Fc fusion protein (R&D Systems) (Fc fusion)
chain: ECKEALAKSEMNVNMKYQLPNFTAETPIQNVILHEHHIFLGATNYIYVLNEEDLQKVAEYKTGPVLEHPDCFPCQDCSSKANLSGGVWKDNINMALVVDTYYDDQLISCGSVNRGTCQRHVFPHNHTADIQSEVHCIFSPQIEEPSQCPDCVVSALGAKVLSSVKDRFINFFVGNTINSSYFPDHPLHSISVRRLKETKDGFMFLTDQSYIDVLPEFRDSYPIKYVHAFESNNFIYFLTVQRETLDAQTFHTRIIRFCSINSGLHSYMEMPLECILTEKRKKRSTKKEVFNILQAAYVSKPGAQLARQIGASLNDDILFGVFAQSKPDSAEPMDRSAMCAFPIKYVNDFFNKIVNKNNVRCLQHFYGPNHEHCFNRTLLRNSSGCEARRDEYRTEFTTALQRVDLFMGQFSEVLLTSISTFIKGDLTIANLGTSEGRFMQVVVSRSGPSTPHVNFLLDSHPVSPEVIVEHTLNQNGYTLVITGKKITKIPLNGLGCRHFQSCSQCLSAPPFVQCGWCHDKCVRSEECLSGTWTQQICLPAIYKVFPNSAPLEGGTRLTICGWDFGFRRNNKFDLKKTRVLLGNESCTLTLSESTMNTLKCTVGPAMNKHFNMSIIISNGHGTTQYSTFSYVDPVITSISPKYGPMAGGTLLTLTGNYLNSGNSRHISIGGKTCTLKSVSNSILECYTPAQTISTEFAVKLKIDLANRETSIFSYREDPIVYEIHPTKSFISGGSTITGVGKNLNSVSVPRMVINVHEAGRNFTVACQHRSNSEIICCTTPSLQQLNLQLPLKTKAFFMLDGILSKYFDLIYVHNPVFKPFEKPVMISMGNENVLEIKGNDIDPEAVKGEVLKVGNKSCENIHLHSEAVLCTVPNDLLKLNSELNIEWKQAISSTVLGKVIVQPDQNFT
notes: extracellular domain; Bought protein; the construct is not described; not shown: Fc part of the bought fusion protein, not described
B2: human Netrin-G1-his (purified Netrin-G1 protein with a C-terminus His tag) (receptor, UniProt Q9Y2I2-1 29-409, looked up, not shown: small tags and cut ends)
chain: HYDLCKTQIYTEEGKVWDYMACQPESTDMTKYLKVKLDPPDITCGDPPETFCAMGNPYMCNNECDASTPELAHPPELMFDFEGRHPSTFWQSATWKEYPKPLQVNITLSWSKTIELTDNIVITFESGRPDQMILEKSLDYGRTWQPYQYYATDCLDAFHMDPKSVKDLSQHTVLEIICTEEYSTGYTTNSKIIHFEIKDRFAFFAGPRLRNMASLYGQLDTTKKLRDFFTVTDLRIRLLRPAVGEIFVDELHLARYFYAISDIKVRGRCKCNLHATVCVYDNSKLTCECEHNTTGPDCGKCKKNYQGRPWSPGSYLPIPKGTANTCIPSISSIGTNVCDNELLHCQNGGTCHNNVRCLCPAAYTGILCEKLRCEEAGSCGS
notes: Used purified in the pull-down and as a crude preparation (1 ug/ml) for coating in the solid phase assay; also called NetrinG-his
B3: human NGL-1-Fc (extracellular domain of human NGL-1 fused to human IgG1 Fc) (Fc fusion)
chain: QTCPSVCSCSNQFSKVICVRKNLREVPDGISTNTRLLNLHENQIQIIKVNSFKHLRHLEILQLSRNHIRTIEIGAFNGLANLNTLELFDNRLTTIPNGAFVYLSKLKELWLRNNPIESIPSYAFNRIPSLRRLDLGELKRLSYISEGAFEGLSNLRYLNLAMCNLREIPNLTPLIKLDELDLSGNHLSAIRPGSFQGLMHLQKLWMIQSQIQVIERNAFDNLQSLVEINLAHNNLTLLPHDLFTPLHHLERIHLHHNPWNCNCDILWLSWWIKDMAPSNTACCARCNTPPNLKGRYIGELDQNYFTCYAPVIVEPPADLNVTEGMAAELKCRASTSLTSVSWITPNGTVMTHGAYKVRIAVLSDGTLNFTNVTVQDTGMYTCMVSNSVGNTTASATLNVTAATTTPFSYFSTVTVETMEPSQDEARTTDNNVGPTPVVDWETTNVTTSLTPQSTRSTEKTFTIPVTDINSGIPGIDEVMKTTK
notes: also called NGL-1-ECD IgG Fc fusion protein; PRO331 ECD-Fc; not shown: human IgG1 Fc region

For assay [1], the target named is recombinant 6xHis-tagged chick Netrin-1 protein (R&D Systems) (chicken, UniProt Q90922 26-606). The experiment in a line: solution binding assay, protein A bead pull-down, blot probed with anti-chicken Netrin-1. On the procedure:
(§1) Recombinant human NGL-1-Fc (a-c), human Netrin-G1-Fc (d-f) and human DCC-Fc (g-i) were used to label COS7 cells expressing human NGL-1 (a, d, g), human Netrin-G1 (b, e, h), chicken Netrin-1 (c, f, i). Specific binding of the transfected cells was evident for Netrin-G1-expressing cells labeled with NGL-1-Fc (b), for NGL-1-expressing cells labeled with Netrin-G 1-Fc (d), as well as for Netrin-1-expressing cells labeled with DCC-Fc (i). (j) The recombinant ECD-Fc fusion proteins (5 nM) indicated at the top (lanes 3-7) were incubated with human Netrin-G1-his (first row), chicken Netrin-1-his (second row) or human HGF protein (third row) in a solution binding assay. Complexes were pulled down by protein A-conjugated beads and probed with His-Probe (anti-His), antibodies to chicken netrin-1 and monoclonal antibodies to human HGF, as indicated. Direct and specific binding of NGL-1-Fc and netrin-G1-His (50 kDa) is shown in the first row. The netrin-1-His protein (75-85 kDa) binds strongly to DCC-Fc and Unc5-Fc (lanes 3 and 4, second row), extremely weakly to NGL-1-Fc (lane 5, second row), and not at all to human cMet-Fc (lane 6). HGF binds to cMet-Fc (lane 6, third row). Lane 1, directly loaded netrin-G1-His; lane 2, directly loaded netrin-1-His; lane 7, directly loaded HGF.
(§2) The question remained whether Netrin-G1 and NGL-1 directly interact with each other. […]

The target in assay [2] is B3. The assay can be described thus: solid phase binding assay, Netrin-G1-his coated wells, serial dilution of NGL-1-Fc, saturation curve and Scatchard analysis. On the procedure:
(§3) The binding affinity of NGL-1 and Netrin-G1 was then evaluated by a solid phase binding assay. Crude NetrinG-his protein (1 μg/ml) was coated in microtiter wells and non-specific binding sites saturated with 0.5% BSA. Purified NGL-1-Fc protein was serially diluted and added to the coated wells for 1 hour. Signals were detected with the biotinylated anti-human IgGFc antibody, horseradish peroxidase-conjugated strepavidin and a chromogenic substrate TMB (Kirkgaard and Perry Lab). The reactions were terminated with phosphoric acid and absorbance at 450 nm was measured. Non-specific binding was determined in parallel by omitting the microtiter well coating or by incubating the wells with the irrelevant cMet-Fc fusion protein, and dissociation constants were determined using saturation curves and Scatchard analysis (FIG. 2a). […] Cell 87, 175-185. (1996)].

In assay [3] the target is B1. The experiment in a line: solution binding assay, protein A bead pull-down, blot probed with HisProbe. On the procedure: as §1, §2
The target of assay [4] is T1, human NGL-1 expressed on COS7 cells (human, UniProt Q9HCJ2 43-640).
T1 construct: also called PRO331; Netrin-G1 Ligand
T1 sequence: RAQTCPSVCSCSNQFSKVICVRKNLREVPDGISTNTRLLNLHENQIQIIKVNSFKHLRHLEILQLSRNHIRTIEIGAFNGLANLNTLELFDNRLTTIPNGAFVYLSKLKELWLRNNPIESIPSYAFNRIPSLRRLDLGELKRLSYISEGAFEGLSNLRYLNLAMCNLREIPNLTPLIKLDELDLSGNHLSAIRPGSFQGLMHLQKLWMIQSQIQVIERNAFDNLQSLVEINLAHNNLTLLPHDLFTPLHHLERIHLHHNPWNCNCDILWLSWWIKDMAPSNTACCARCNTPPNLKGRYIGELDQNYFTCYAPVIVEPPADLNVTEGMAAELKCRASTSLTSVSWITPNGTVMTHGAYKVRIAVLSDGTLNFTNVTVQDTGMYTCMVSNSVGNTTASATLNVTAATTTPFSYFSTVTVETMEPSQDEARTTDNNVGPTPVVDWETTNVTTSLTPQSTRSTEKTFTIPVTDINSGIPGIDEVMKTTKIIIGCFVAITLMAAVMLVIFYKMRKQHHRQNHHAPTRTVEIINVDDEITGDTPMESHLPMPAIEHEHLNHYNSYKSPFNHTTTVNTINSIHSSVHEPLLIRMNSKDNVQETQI
The experiment in a line: cell surface binding assay on transfected COS7 cells, fluorescence microscopy. On the procedure: (§4) The resultant fusion proteins were expressed and used in binding assays over a panel of ˜400 putative cell surface transmembrane or GPI-anchored cell surface human proteins that were transiently expressed in COS7 cells. Purified ECD-Fc fusion proteins (0.5 μg/ml) or the crude baculovirus lysates were added to transiently transfected COS7 cells for 1-2 hours at room temperature. After 3 rinses with cold phosphate buffered saline (PBS), the bound protein was cross-linked to the cell surface with 4% paraformaldehyde. The bound Fc fusion protein was detected by biotinylated anti-human IgGFc and R-phycoerythrin-conjugated streptavidin (Jackson Immunoresearch). Cell surface staining was visualized by fluorescent microscopy and images were taken with the Penguin 800CL digital camera system (Pixera).
(§5) Although the NGL-1 and Netrin-G1 interaction appeared to be specific within the context of the screen, the classical Netrins and their known receptors, DCC and Unc5, were not included in the screen. Thus whether NGL-1 also interacts with Netrin-1 and its receptors was determined. Using the same cell surface binding assay, NGL-1, Netrin-G1, or Netrin-1 were expressed in COS7 cells (rows in FIG. 1a-i) and their ability to bind the IgG Fe fusion protein of NGL-1, Netrin-G1, or DCC (columns in FIG. 1a-i) was determined. […]

Assay [5] addresses B2. The experiment in a line: solid phase binding assay: Netrin-G1-his coated in microtiter wells, NGL-1-Fc in solution, OD450; specific binding = total minus cMet-Fc binding. On the procedure: as §3
The target in assay [6] is T2, DCC expressed on COS cells (human, UniProt P43146 26-1447).
T2 construct: whole, on cells
T2 sequence (P43146 26-1447): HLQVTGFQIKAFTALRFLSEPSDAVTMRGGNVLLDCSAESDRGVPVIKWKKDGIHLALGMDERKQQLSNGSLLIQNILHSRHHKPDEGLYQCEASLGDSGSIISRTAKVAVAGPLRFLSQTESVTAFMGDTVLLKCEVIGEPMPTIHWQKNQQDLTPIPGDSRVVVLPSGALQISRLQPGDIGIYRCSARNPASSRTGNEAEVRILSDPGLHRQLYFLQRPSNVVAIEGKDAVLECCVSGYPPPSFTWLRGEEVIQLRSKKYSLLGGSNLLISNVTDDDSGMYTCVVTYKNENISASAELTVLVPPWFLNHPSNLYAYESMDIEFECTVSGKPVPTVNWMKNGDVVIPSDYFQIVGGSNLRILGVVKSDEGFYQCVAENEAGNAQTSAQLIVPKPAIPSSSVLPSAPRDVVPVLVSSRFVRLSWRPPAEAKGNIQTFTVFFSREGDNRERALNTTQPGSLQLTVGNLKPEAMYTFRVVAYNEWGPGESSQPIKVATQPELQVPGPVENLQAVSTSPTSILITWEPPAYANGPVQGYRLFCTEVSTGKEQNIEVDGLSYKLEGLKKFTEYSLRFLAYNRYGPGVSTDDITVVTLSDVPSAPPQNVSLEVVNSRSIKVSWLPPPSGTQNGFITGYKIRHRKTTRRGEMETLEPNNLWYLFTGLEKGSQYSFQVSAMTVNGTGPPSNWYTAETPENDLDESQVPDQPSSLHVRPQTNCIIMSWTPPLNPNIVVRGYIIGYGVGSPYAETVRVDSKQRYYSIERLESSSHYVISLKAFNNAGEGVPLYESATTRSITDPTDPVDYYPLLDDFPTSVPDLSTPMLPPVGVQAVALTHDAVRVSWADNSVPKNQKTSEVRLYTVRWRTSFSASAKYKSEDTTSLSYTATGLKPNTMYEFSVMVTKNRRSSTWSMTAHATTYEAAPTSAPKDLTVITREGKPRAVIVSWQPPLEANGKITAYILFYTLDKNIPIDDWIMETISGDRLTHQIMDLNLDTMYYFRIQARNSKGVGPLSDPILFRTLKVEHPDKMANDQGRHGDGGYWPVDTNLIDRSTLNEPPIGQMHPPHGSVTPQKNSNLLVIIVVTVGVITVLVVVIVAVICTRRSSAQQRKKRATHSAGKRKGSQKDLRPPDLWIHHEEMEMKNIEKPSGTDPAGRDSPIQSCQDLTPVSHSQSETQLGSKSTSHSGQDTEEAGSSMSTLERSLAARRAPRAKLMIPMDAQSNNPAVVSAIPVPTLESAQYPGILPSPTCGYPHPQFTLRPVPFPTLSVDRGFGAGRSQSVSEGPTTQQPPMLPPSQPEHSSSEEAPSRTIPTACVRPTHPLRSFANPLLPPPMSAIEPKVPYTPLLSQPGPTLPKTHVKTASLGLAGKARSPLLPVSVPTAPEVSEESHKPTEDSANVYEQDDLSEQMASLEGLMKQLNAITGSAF
The assay can be described thus: cell surface binding assay on transfected COS7 cells, fluorescence microscopy (data not shown). On the procedure: as §4, §5

A further assay concerns the target T3, human HGF protein (human, UniProt P14210 32-728, limits assumed).
T3 construct: also called hepatocyte growth factor
The assay can be described thus: solution binding assay, pull-down with protein A beads, blot probed with anti-HGF (panel j). On the procedure:
as §1, §2

T3 sequence (P14210 32-728 limits assumed): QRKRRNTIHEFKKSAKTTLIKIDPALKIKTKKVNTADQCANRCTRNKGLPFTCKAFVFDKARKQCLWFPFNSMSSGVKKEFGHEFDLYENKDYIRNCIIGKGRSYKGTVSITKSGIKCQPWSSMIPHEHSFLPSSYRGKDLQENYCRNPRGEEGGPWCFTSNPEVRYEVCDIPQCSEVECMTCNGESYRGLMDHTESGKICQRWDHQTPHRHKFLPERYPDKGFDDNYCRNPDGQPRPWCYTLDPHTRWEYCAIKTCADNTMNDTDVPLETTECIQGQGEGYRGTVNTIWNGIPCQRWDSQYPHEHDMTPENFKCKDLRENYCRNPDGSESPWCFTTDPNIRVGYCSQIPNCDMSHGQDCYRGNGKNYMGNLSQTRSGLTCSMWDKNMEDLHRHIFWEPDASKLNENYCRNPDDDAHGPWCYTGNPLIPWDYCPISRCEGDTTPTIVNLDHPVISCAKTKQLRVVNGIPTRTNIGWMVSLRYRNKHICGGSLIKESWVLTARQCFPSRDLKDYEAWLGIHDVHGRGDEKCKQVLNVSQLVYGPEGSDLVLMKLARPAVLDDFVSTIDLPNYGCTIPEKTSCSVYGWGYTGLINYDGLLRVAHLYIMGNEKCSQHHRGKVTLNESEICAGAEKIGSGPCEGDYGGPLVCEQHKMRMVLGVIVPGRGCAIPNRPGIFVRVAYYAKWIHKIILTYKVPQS

For B1, in assay [1], the binding result is given as “no binding”.
For B2, in assay [2], the Kd was found to be 1.6 nM. In assay [3], the binding result is reported as “no binding”.
B3: the binding result in assay [4] was “no binding”; in assay [6] it was “no binding”; with human HGF protein, “no binding (tested: 5 nM)”. The “EC50 (read off the curve)” value in assay [5] was about 2 nM.
